Our source for the gene expression from the pR promoter driving pIII and luciferase values is US20170009224A1.

The target of this assay is lambda repressor cI comprising a TEV protease cleavage site (ENLYFQ(G/S)) within the interdomain linker (UniProt P03034). In words: cell-based or functional assay.

Where only a bound is given, the exact number is not on record here.

Chain of TEV protease (wild type) (P04517 2038-2279): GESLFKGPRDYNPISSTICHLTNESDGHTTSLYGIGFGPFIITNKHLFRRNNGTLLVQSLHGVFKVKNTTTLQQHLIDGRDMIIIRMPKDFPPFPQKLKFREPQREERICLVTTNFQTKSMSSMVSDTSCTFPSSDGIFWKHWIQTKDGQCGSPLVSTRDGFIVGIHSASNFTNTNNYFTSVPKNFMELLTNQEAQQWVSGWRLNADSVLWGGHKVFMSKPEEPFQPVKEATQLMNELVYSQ

In the case of “TEV protease (wild type) (from UniProt P04517 2038-2279) (enzyme)”, the gene expression from the pR promoter driving pIII and luciferase is > 100 fold.
